Experimental data taken from patent US20130323786A1 (Biogen, published 2013).

T1: LINGO-Fc (human, UniProt Q96FE5 40-538, limits assumed)
T1 construct: not shown: Fc part
T1 sequence: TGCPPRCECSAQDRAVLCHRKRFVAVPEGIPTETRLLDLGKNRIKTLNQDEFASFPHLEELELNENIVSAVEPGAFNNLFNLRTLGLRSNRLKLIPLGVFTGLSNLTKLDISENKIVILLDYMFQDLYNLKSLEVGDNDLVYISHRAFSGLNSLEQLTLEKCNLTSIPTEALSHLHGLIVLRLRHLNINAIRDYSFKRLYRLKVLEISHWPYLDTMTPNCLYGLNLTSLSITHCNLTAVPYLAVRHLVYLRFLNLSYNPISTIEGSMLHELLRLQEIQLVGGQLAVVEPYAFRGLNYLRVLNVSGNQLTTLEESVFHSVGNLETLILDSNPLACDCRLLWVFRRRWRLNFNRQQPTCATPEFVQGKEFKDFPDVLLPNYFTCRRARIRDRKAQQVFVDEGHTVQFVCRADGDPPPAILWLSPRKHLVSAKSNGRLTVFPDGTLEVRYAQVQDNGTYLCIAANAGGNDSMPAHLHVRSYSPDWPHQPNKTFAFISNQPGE


Experiments:
LINGO-Fc [1] = target: T1, LINGO-Fc; test: direct ELISA on LINGO-Fc; OD450 at saturation relative to Li33;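 further: binding to plate-coated LINGO-Fc read by OD450, with the value at maximal saturation divided by the corresponding Li33 value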
Experimental: (§1) A direct binding ELISA assay was performed using LINGO-Fc coated plates. The half maximal concentration that gave 50% saturation of binding was measured and is reported as a ratio of the same measurement for Li33. In addition, the OD450 for maximal saturation value was measured and is reported as a ratio of the same measurement for Li33.

LINGO-Fc [2] = target: T1, LINGO-Fc; test: direct ELISA on LINGO-Fc; half-maximal concentration relative to Li33;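 further: direct binding ELISA on plates coated with LINGO-Fc, concentration giving half of saturating binding, expressed as a ratio to the same value for the comparator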
Experimental: as §1

Binder | Plateau Ratio (LINGO-Fc [1]) [ratio] | ELISA Ratio (LINGO-Fc [2]) [ratio]
WT Li33 (Table 11) (antibody, V domains shown) VH: EVQLLESGGGLVQPGGSLRLSCAASGFTFSIYPMFWVRQAPGKGLEWVSWIGPSGGITKYADSVKGRFTISRDNSKNTLYLQMNSLRAEDTATYYCAREGHNDWYFDLWGRGTLVTVSS VL: DIQMTQSPGTLSLSPGERATLSCRASQSVSSYLAWYQQKPGQAPRLLIYDASNRATGIPARFSGSGSGTEFTLTISSLQSEDFAVYYCQQYDKWPLTFGGGTKVEIKR | 0.91 | 1
Li33 variant I57F (SEQ ID NO:164) (antibody, V domains shown, unchanged chain from WT Li33) VH: EVQLLESGGGLVQPGGSLRLSCAASGFTFSIYPMFWVRQAPGKGLEWVSWIGPSGGFTKYADSVKGRFTISRDNSKNTLYLQMNSLRAEDTATYYCAREGHNDWYFDLWGRGTLVTVSS VL: DIQMTQSPGTLSLSPGERATLSCRASQSVSSYLAWYQQKPGQAPRLLIYDASNRATGIPARFSGSGSGTEFTLTISSLQSEDFAVYYCQQYDKWPLTFGGGTKVEIKR | 0.83 | 2
Li33 variant I57G (SEQ ID NO:159) (antibody, V domains shown, unchanged chain from WT Li33) VH: EVQLLESGGGLVQPGGSLRLSCAASGFTFSIYPMFWVRQAPGKGLEWVSWIGPSGGGTKYADSVKGRFTISRDNSKNTLYLQMNSLRAEDTATYYCAREGHNDWYFDLWGRGTLVTVSS VL: DIQMTQSPGTLSLSPGERATLSCRASQSVSSYLAWYQQKPGQAPRLLIYDASNRATGIPARFSGSGSGTEFTLTISSLQSEDFAVYYCQQYDKWPLTFGGGTKVEIKR | 0.91 | 2.3
Li33 variant I57H (SEQ ID NO:162) (antibody, V domains shown, unchanged chain from WT Li33) VH: EVQLLESGGGLVQPGGSLRLSCAASGFTFSIYPMFWVRQAPGKGLEWVSWIGPSGGHTKYADSVKGRFTISRDNSKNTLYLQMNSLRAEDTATYYCAREGHNDWYFDLWGRGTLVTVSS VL: DIQMTQSPGTLSLSPGERATLSCRASQSVSSYLAWYQQKPGQAPRLLIYDASNRATGIPARFSGSGSGTEFTLTISSLQSEDFAVYYCQQYDKWPLTFGGGTKVEIKR | 1.07 | 3.2
Li33 variant I57L (SEQ ID NO:163) (antibody, V domains shown, unchanged chain from WT Li33) VH: EVQLLESGGGLVQPGGSLRLSCAASGFTFSIYPMFWVRQAPGKGLEWVSWIGPSGGLTKYADSVKGRFTISRDNSKNTLYLQMNSLRAEDTATYYCAREGHNDWYFDLWGRGTLVTVSS VL: DIQMTQSPGTLSLSPGERATLSCRASQSVSSYLAWYQQKPGQAPRLLIYDASNRATGIPARFSGSGSGTEFTLTISSLQSEDFAVYYCQQYDKWPLTFGGGTKVEIKR | 1 | 0.7
Li33 variant I57M (SEQ ID NO:160) (antibody, V domains shown, unchanged chain from WT Li33) VH: EVQLLESGGGLVQPGGSLRLSCAASGFTFSIYPMFWVRQAPGKGLEWVSWIGPSGGMTKYADSVKGRFTISRDNSKNTLYLQMNSLRAEDTATYYCAREGHNDWYFDLWGRGTLVTVSS VL: DIQMTQSPGTLSLSPGERATLSCRASQSVSSYLAWYQQKPGQAPRLLIYDASNRATGIPARFSGSGSGTEFTLTISSLQSEDFAVYYCQQYDKWPLTFGGGTKVEIKR | 1.09 | 3.8
Li33 variant I57N (SEQ ID NO:161) (antibody, V domains shown, unchanged chain from WT Li33) VH: EVQLLESGGGLVQPGGSLRLSCAASGFTFSIYPMFWVRQAPGKGLEWVSWIGPSGGNTKYADSVKGRFTISRDNSKNTLYLQMNSLRAEDTATYYCAREGHNDWYFDLWGRGTLVTVSS VL: DIQMTQSPGTLSLSPGERATLSCRASQSVSSYLAWYQQKPGQAPRLLIYDASNRATGIPARFSGSGSGTEFTLTISSLQSEDFAVYYCQQYDKWPLTFGGGTKVEIKR | 1.1 | 2.9
Li33 variant I57P (SEQ ID NO:184) (antibody, V domains shown, unchanged chain from WT Li33) VH: EVQLLESGGGLVQPGGSLRLSCAASGFTFSIYPMFWVRQAPGKGLEWVSWIGPSGGPTKYADSVKGRFTISRDNSKNTLYLQMNSLRAEDTATYYCAREGHNDWYFDLWGRGTLVTVSS VL: DIQMTQSPGTLSLSPGERATLSCRASQSVSSYLAWYQQKPGQAPRLLIYDASNRATGIPARFSGSGSGTEFTLTISSLQSEDFAVYYCQQYDKWPLTFGGGTKVEIKR | 1.27 | 0.6
Li33 variant I57S (SEQ ID NO:183) (antibody, V domains shown, unchanged chain from WT Li33) VH: EVQLLESGGGLVQPGGSLRLSCAASGFTFSIYPMFWVRQAPGKGLEWVSWIGPSGGSTKYADSVKGRFTISRDNSKNTLYLQMNSLRAEDTATYYCAREGHNDWYFDLWGRGTLVTVSS VL: DIQMTQSPGTLSLSPGERATLSCRASQSVSSYLAWYQQKPGQAPRLLIYDASNRATGIPARFSGSGSGTEFTLTISSLQSEDFAVYYCQQYDKWPLTFGGGTKVEIKR | 0.96 | 0.6
Li33 variant I57T (SEQ ID NO:186) (antibody, V domains shown, unchanged chain from WT Li33) VH: EVQLLESGGGLVQPGGSLRLSCAASGFTFSIYPMFWVRQAPGKGLEWVSWIGPSGGTTKYADSVKGRFTISRDNSKNTLYLQMNSLRAEDTATYYCAREGHNDWYFDLWGRGTLVTVSS VL: DIQMTQSPGTLSLSPGERATLSCRASQSVSSYLAWYQQKPGQAPRLLIYDASNRATGIPARFSGSGSGTEFTLTISSLQSEDFAVYYCQQYDKWPLTFGGGTKVEIKR | 1.01 | 1.1
Li33 variant I57V (SEQ ID NO:185) (antibody, V domains shown, unchanged chain from WT Li33) VH: EVQLLESGGGLVQPGGSLRLSCAASGFTFSIYPMFWVRQAPGKGLEWVSWIGPSGGVTKYADSVKGRFTISRDNSKNTLYLQMNSLRAEDTATYYCAREGHNDWYFDLWGRGTLVTVSS VL: DIQMTQSPGTLSLSPGERATLSCRASQSVSSYLAWYQQKPGQAPRLLIYDASNRATGIPARFSGSGSGTEFTLTISSLQSEDFAVYYCQQYDKWPLTFGGGTKVEIKR | 1.13 | 1.4
Li33 variant I57W (SEQ ID NO:181) (antibody, V domains shown, unchanged chain from WT Li33) VH: EVQLLESGGGLVQPGGSLRLSCAASGFTFSIYPMFWVRQAPGKGLEWVSWIGPSGGWTKYADSVKGRFTISRDNSKNTLYLQMNSLRAEDTATYYCAREGHNDWYFDLWGRGTLVTVSS VL: DIQMTQSPGTLSLSPGERATLSCRASQSVSSYLAWYQQKPGQAPRLLIYDASNRATGIPARFSGSGSGTEFTLTISSLQSEDFAVYYCQQYDKWPLTFGGGTKVEIKR | – | 0
Li33 variant I57Y (SEQ ID NO:182) (antibody, V domains shown, unchanged chain from WT Li33) VH: EVQLLESGGGLVQPGGSLRLSCAASGFTFSIYPMFWVRQAPGKGLEWVSWIGPSGGYTKYADSVKGRFTISRDNSKNTLYLQMNSLRAEDTATYYCAREGHNDWYFDLWGRGTLVTVSS VL: DIQMTQSPGTLSLSPGERATLSCRASQSVSSYLAWYQQKPGQAPRLLIYDASNRATGIPARFSGSGSGTEFTLTISSLQSEDFAVYYCQQYDKWPLTFGGGTKVEIKR | – | 0
Li33 variant P53G (SEQ ID NO:180) (antibody, V domains shown, unchanged chain from WT Li33) VH: EVQLLESGGGLVQPGGSLRLSCAASGFTFSIYPMFWVRQAPGKGLEWVSWIGGSGGITKYADSVKGRFTISRDNSKNTLYLQMNSLRAEDTATYYCAREGHNDWYFDLWGRGTLVTVSS VL: DIQMTQSPGTLSLSPGERATLSCRASQSVSSYLAWYQQKPGQAPRLLIYDASNRATGIPARFSGSGSGTEFTLTISSLQSEDFAVYYCQQYDKWPLTFGGGTKVEIKR | 0.83 | 3.1
Li33 variant P53L (SEQ ID NO:151) (antibody, V domains shown, unchanged chain from WT Li33) VH: EVQLLESGGGLVQPGGSLRLSCAASGFTFSIYPMFWVRQAPGKGLEWVSWIGLSGGITKYADSVKGRFTISRDNSKNTLYLQMNSLRAEDTATYYCAREGHNDWYFDLWGRGTLVTVSS VL: DIQMTQSPGTLSLSPGERATLSCRASQSVSSYLAWYQQKPGQAPRLLIYDASNRATGIPARFSGSGSGTEFTLTISSLQSEDFAVYYCQQYDKWPLTFGGGTKVEIKR | 1.13 | 2.2
Li33 variant P53S (SEQ ID NO:152) (antibody, V domains shown, unchanged chain from WT Li33) VH: EVQLLESGGGLVQPGGSLRLSCAASGFTFSIYPMFWVRQAPGKGLEWVSWIGSSGGITKYADSVKGRFTISRDNSKNTLYLQMNSLRAEDTATYYCAREGHNDWYFDLWGRGTLVTVSS VL: DIQMTQSPGTLSLSPGERATLSCRASQSVSSYLAWYQQKPGQAPRLLIYDASNRATGIPARFSGSGSGTEFTLTISSLQSEDFAVYYCQQYDKWPLTFGGGTKVEIKR | 1.43 | 2.5
Li33 variant P53T (SEQ ID NO:153) (antibody, V domains shown, unchanged chain from WT Li33) VH: EVQLLESGGGLVQPGGSLRLSCAASGFTFSIYPMFWVRQAPGKGLEWVSWIGTSGGITKYADSVKGRFTISRDNSKNTLYLQMNSLRAEDTATYYCAREGHNDWYFDLWGRGTLVTVSS VL: DIQMTQSPGTLSLSPGERATLSCRASQSVSSYLAWYQQKPGQAPRLLIYDASNRATGIPARFSGSGSGTEFTLTISSLQSEDFAVYYCQQYDKWPLTFGGGTKVEIKR | 0.85 | 2.1
Li33 variant P53W (SEQ ID NO:154) (antibody, V domains shown, unchanged chain from WT Li33) VH: EVQLLESGGGLVQPGGSLRLSCAASGFTFSIYPMFWVRQAPGKGLEWVSWIGWSGGITKYADSVKGRFTISRDNSKNTLYLQMNSLRAEDTATYYCAREGHNDWYFDLWGRGTLVTVSS VL: DIQMTQSPGTLSLSPGERATLSCRASQSVSSYLAWYQQKPGQAPRLLIYDASNRATGIPARFSGSGSGTEFTLTISSLQSEDFAVYYCQQYDKWPLTFGGGTKVEIKR | 0.55 | 3.9
Li33 variant W50D (SEQ ID NO:175) (antibody, V domains shown, unchanged chain from WT Li33) VH: EVQLLESGGGLVQPGGSLRLSCAASGFTFSIYPMFWVRQAPGKGLEWVSDIGPSGGITKYADSVKGRFTISRDNSKNTLYLQMNSLRAEDTATYYCAREGHNDWYFDLWGRGTLVTVSS VL: DIQMTQSPGTLSLSPGERATLSCRASQSVSSYLAWYQQKPGQAPRLLIYDASNRATGIPARFSGSGSGTEFTLTISSLQSEDFAVYYCQQYDKWPLTFGGGTKVEIKR | 0.71 | 4
